Our source for the Kd, koff and kon values is paper PMC9182133, “Cholesterol Dependent Activity of the Adenosine A2A Receptor Is Modulated via the Cholesterol Consensus Motif” (Molecules, 2022).

The term Kd denotes the equilibrium constant for the complex coming apart. A lower Kd goes with tighter binding. As usually defined, the koff is the first-order rate constant of dissociation. As a reminder, the kon is the rate constant with which the complex forms.

Assay [1] deals with T1, wild-type human adenosine A2A receptor with rho-1d4 tag (pITy4-A2AR-1d4) (human, UniProt P29274 1-412).
T1 construct: adenosine A2A receptor, human, wild type; the abstract calls it full length; also called WT A2AR; source: S. cerevisiae BJ5464 (pITy4, galactose induced), purified (Rho-1d4 resin, eluted with Rho-1d4 peptide) in DDM/CHAPS/CHS
T1 sequence (P29274 whole entry): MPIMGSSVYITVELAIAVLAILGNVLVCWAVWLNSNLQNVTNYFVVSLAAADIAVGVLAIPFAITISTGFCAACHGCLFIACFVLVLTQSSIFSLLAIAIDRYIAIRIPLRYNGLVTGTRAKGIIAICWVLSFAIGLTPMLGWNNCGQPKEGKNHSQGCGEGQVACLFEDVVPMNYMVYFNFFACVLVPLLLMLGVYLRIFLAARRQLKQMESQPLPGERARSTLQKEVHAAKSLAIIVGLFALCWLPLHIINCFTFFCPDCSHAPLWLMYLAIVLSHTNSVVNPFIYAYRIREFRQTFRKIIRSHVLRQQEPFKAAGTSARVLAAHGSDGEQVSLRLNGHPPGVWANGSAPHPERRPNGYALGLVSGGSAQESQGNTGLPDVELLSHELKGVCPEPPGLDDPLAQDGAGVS
The assay can be described thus: SPR; His6-Gαs (1 µM injected) captured on a high-capacity Ni-NTA chip; purified receptor injected at 296 (legend: 267), 445 or 667 nM for 3 min, dissociation 5 min; 20 °C, 25 µL/min; 50 mM Tris-HCl pH 8, 0.1% DDM, 0.1% CHAPS, 0.02% CHS; channel with denatured Gαs subtracted; 1-1 binding model, fits of three biological replicates averaged. The following applies: both partners purified.

The target of assay [2] is T2, A2AR S47A variant with rho-1d4 tag (human, UniProt P29274 1-412, S47A).
T2 construct: adenosine A2A receptor, human, with S47A (Ballesteros-Weinstein 2.45) in the cholesterol consensus motif; source: S. cerevisiae BJ5464 (pITy4, galactose induced), purified (Rho-1d4 resin, eluted with Rho-1d4 peptide) in DDM/CHAPS/CHS
T2 sequence (P29274 whole entry S47A): as the sequence (P29274 whole entry) above, with S47A counted along it
The assay is described as above. The following applies: both partners purified.

B1: Gαs protein (pET15b-Gαs, His6 tagged) (natural protein, UniProt P63092 1-394, looked up)
chain: MGCLGNSKTEDQRNEEKAQREANKKIEKQLQKDKQVYRATHRLLLLGAGESGKSTIVKQMRILHVNGFNGEGGEEDPQAARSNSDGEKATKVQDIKNNLKEAIETIVAAMSNLVPPVELANPENQFRVDYILSVMNVPDFDFPPEFYEHAKALWEDEGVRACYERSNEYQLIDCAQYFLDKIDVIKQADYVPSDQDLLRCRVLTSGIFETKFQVDKVNFHMFDVGGQRDERRKWIQCFNDVTAIIFVVASSSYNMVIREDNQTNRLQEALNLFKSIWNNRWLRTISVILFLNKQDLLAEKVLAGKSKIEDYFPEFARYTTPEDATPEPGEDPRVTRAKYFIRDEFLRISTASGDGRHYCYPHFTCAVDTENIRRVFNDCRDIIQRMHLRQYELL
notes: G protein alpha-s subunit; also called G protein; source: E. coli Rosetta (DE3), purified (Ni-NTA resin)
In assay [1], B1 came in with a Kd of 74 nM, a koff of 0.00066 s⁻¹ and a kon of 12700 ± 649 M⁻¹ s⁻¹. Moreover, in assay [2], the Kd was found to be 146 nM, the koff worked out at 0.00122 s⁻¹ and the kon is 18700 ± 2900 M⁻¹ s⁻¹.
